In patent publication US20130273076A1 (Harvard, published 2013):

Key:
[1] = molecular target: endogenous RhoA of mouse brain (mouse, UniProt Q9QUI0 1-190); assay: cell-based or functional assay
[2] = molecular target: Flag-EphB2-kinase dead (KD)
[3] = molecular target: Flag-EphB2-Acyto (cytoplasmic truncated version of EphB2)
[4] = molecular target: Flag-EphB2
[5] = molecular target: Flag-EphA4
[6] = molecular target: EphA2 (expressed in HEK293T cells)
Chain of EphA2 (expressed in HEK293T cells) (P29317 whole entry): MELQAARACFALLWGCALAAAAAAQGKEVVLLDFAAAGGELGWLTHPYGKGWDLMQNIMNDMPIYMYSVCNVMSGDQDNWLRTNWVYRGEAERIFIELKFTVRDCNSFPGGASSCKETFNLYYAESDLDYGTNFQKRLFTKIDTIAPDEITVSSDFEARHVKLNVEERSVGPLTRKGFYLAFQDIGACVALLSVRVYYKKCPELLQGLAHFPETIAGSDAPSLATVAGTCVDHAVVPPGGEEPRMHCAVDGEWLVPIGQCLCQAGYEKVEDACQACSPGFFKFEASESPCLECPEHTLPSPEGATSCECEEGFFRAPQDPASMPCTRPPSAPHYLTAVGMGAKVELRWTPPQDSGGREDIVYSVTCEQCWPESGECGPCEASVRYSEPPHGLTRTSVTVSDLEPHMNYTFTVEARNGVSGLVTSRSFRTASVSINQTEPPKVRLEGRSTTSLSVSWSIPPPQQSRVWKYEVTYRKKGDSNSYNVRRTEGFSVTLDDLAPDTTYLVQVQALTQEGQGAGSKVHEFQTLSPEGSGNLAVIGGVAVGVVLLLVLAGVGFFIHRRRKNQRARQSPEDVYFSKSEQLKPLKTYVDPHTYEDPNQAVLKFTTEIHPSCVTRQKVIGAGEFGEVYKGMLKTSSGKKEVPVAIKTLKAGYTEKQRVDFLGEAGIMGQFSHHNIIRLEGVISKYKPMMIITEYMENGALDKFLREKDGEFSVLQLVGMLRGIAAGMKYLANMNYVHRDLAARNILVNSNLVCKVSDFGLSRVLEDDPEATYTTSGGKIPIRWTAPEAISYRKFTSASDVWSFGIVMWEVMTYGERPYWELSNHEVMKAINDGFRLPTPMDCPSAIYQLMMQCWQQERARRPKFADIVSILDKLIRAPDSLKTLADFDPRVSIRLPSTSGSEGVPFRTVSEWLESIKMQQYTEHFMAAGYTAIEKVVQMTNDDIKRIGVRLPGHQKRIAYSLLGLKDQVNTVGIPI

Chain of endogenous RhoA of mouse brain (Q9QUI0 1-190 limits assumed): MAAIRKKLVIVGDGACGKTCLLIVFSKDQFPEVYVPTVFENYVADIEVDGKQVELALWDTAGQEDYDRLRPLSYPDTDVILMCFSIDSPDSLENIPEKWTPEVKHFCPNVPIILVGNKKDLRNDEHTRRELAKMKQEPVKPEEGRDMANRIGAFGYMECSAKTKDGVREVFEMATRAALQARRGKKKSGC

B1: endogenous mouse Ephexin5 (neurons, brain lysates) (enzyme, UniProt Q5FWH6 1-849, looked up)
chain: MSAQSLPAATPPTLKPPRIIRPRPPSRHRAPHSPGPLHNGSSPKALPQISNDASASVCTSIFWEPPTASLKPPALLPPSVSRTSLDSQTSPDSPSSTPSPSPVSRRSISPEPAPCSPVPPPKPSGSSRTPLPSGPTPLQDGSASAPGTVRRLAGKFEWGAEGKAQSSDSLERCSQGSTEVNGEKETPEAALSGNGSQENGTPDAALACPPCCPCVCHVAKPGLELRWVPVGSSEDILRIPCRASPLRASRSRINPPVISHPPVVLTSYRSTAERKLLPPLKPPKPTKVRQDISTSEELPQPDLKLPSEDGIQTATKAWEGDRPEGAPLNAPPVALEGREEEGLDGLKGLQWELPLQDEPLYQTYRAAVLSEELWGVGEDGGPSPANPGEAPTFSRLPGPRNTLWQELPAVRGSGLLESLSPQERRMQESLFEVVTSEASYLRSLRLLTDTFVLSQALRDTLTPRDHHTLFSNVQRVQSVSERFLGTLLSRVRSSPHITDLCDVVHAHAVGPFFVYVDYVRNQQYQEETYSRLMDTNVRFSAELRRLQSLPKCERLPLPSFLLLPFQRITRLRMLLQNILSQTEEGSSRQENAQKALGAVSKIIERCSAEVGRMKQTEELIRLTQRLRFHKVKALPLVSWSRRLELQGELTELGCRRGGVLFTSRPRFTPLCLLLFSDLLLITQPKSGQRLQVLDYAHRSLVQAQQVPDPSGPPTFRLSLLSNHQGRPTHRLLQAASLSDMQRWLGAFPTPGPLPCSPDTIYEDCECSQELCSEPSTPSKTEGQSLESKAPRKHLHKNPEGWLKGLPGAFPAQLVCEVTGEHERRKHLRQHQKLLEAVGPSSGTPDTPQP
- anti-RhoA signal from RBD pulldown assays, Ephexin5-/- against wild type brain lysates [1]: 4 fold
- phosphorylation of Ephexin5 at Y361 (anti-pY361 immunoblot) [2]: when wild type EphB2, but not a kinase dead or cytoplasmic truncated version of EphB2, was expressed in HEK293T cells together with Ephexin5, Ephexin5 become tyrosine phosphorylated at Y361
- phosphorylation of Ephexin5 at Y361 (anti-pY361 immunoblot) [3]: when wild type EphB2, but not a kinase dead or cytoplasmic truncated version of EphB2, was expressed in HEK293T cells together with Ephexin5, Ephexin5 become tyrosine phosphorylated at Y361
- phosphorylation of Ephexin5 at Y361 (anti-pY361 immunoblot) [4]: when wild type EphB2, but not a kinase dead or cytoplasmic truncated version of EphB2, was expressed in HEK293T cells together with Ephexin5, Ephexin5 become tyrosine phosphorylated at Y361
- tyrosine phosphorylation of Ephexin5 (anti-phosphotyrosine 4G10 immunoblot) [4]: in the presence of EphB2, Ephexin5-WT, but not Ephexin5-Y361F, become tyrosine phosphorylated
- phosphorylation of Ephexin5 at Y361 (anti-pY361 immunoblot) [5]: when EphA4 or EphA2 were expressed in HEK293T cells they detected little to no phosphorylation of Ephexin5 at Y361
- phosphorylation of Ephexin5 at Y361 (anti-pY361 immunoblot) [6]: when EphA4 or EphA2 were expressed in HEK293T cells they detected little to no phosphorylation of Ephexin5 at Y361

B2: Ephexin5-Y361F-Myc (protein)
chain: MSAQSLPAATPPTLKPPRIIRPRPPSRHRAPHSPGPLHNGSSPKALPQISNDASASVCTSIFWEPPTASLKPPALLPPSVSRTSLDSQTSPDSPSSTPSPSPVSRRSISPEPAPCSPVPPPKPSGSSRTPLPSGPTPLQDGSASAPGTVRRLAGKFEWGAEGKAQSSDSLERCSQGSTEVNGEKETPEAALSGNGSQENGTPDAALACPPCCPCVCHVAKPGLELRWVPVGSSEDILRIPCRASPLRASRSRINPPVISHPPVVLTSYRSTAERKLLPPLKPPKPTKVRQDISTSEELPQPDLKLPSEDGIQTATKAWEGDRPEGAPLNAPPVALEGREEEGLDGLKGLQWELPLQDEPLFQTYRAAVLSEELWGVGEDGGPSPANPGEAPTFSRLPGPRNTLWQELPAVRGSGLLESLSPQERRMQESLFEVVTSEASYLRSLRLLTDTFVLSQALRDTLTPRDHHTLFSNVQRVQSVSERFLGTLLSRVRSSPHITDLCDVVHAHAVGPFFVYVDYVRNQQYQEETYSRLMDTNVRFSAELRRLQSLPKCERLPLPSFLLLPFQRITRLRMLLQNILSQTEEGSSRQENAQKALGAVSKIIERCSAEVGRMKQTEELIRLTQRLRFHKVKALPLVSWSRRLELQGELTELGCRRGGVLFTSRPRFTPLCLLLFSDLLLITQPKSGQRLQVLDYAHRSLVQAQQVPDPSGPPTFRLSLLSNHQGRPTHRLLQAASLSDMQRWLGAFPTPGPLPCSPDTIYEDCECSQELCSEPSTPSKTEGQSLESKAPRKHLHKNPEGWLKGLPGAFPAQLVCEVTGEHERRKHLRQHQKLLEAVGPSSGTPDTPQP
- tyrosine phosphorylation of Ephexin5 (anti-phosphotyrosine 4G10 immunoblot) [4]: in the presence of EphB2, Ephexin5-WT, but not Ephexin5-Y361F, become tyrosine phosphorylated
